Target: Pol epsilon WT (holoenzyme) (Saccharomyces cerevisiae, UniProt P21951;P24482;P27344;Q04603 1-2222;1-689;1-201;1-196)
Experiment: EMSA

Pol epsilon WT (holoenzyme), sequence (P21951 whole entry, chain 1 of 4): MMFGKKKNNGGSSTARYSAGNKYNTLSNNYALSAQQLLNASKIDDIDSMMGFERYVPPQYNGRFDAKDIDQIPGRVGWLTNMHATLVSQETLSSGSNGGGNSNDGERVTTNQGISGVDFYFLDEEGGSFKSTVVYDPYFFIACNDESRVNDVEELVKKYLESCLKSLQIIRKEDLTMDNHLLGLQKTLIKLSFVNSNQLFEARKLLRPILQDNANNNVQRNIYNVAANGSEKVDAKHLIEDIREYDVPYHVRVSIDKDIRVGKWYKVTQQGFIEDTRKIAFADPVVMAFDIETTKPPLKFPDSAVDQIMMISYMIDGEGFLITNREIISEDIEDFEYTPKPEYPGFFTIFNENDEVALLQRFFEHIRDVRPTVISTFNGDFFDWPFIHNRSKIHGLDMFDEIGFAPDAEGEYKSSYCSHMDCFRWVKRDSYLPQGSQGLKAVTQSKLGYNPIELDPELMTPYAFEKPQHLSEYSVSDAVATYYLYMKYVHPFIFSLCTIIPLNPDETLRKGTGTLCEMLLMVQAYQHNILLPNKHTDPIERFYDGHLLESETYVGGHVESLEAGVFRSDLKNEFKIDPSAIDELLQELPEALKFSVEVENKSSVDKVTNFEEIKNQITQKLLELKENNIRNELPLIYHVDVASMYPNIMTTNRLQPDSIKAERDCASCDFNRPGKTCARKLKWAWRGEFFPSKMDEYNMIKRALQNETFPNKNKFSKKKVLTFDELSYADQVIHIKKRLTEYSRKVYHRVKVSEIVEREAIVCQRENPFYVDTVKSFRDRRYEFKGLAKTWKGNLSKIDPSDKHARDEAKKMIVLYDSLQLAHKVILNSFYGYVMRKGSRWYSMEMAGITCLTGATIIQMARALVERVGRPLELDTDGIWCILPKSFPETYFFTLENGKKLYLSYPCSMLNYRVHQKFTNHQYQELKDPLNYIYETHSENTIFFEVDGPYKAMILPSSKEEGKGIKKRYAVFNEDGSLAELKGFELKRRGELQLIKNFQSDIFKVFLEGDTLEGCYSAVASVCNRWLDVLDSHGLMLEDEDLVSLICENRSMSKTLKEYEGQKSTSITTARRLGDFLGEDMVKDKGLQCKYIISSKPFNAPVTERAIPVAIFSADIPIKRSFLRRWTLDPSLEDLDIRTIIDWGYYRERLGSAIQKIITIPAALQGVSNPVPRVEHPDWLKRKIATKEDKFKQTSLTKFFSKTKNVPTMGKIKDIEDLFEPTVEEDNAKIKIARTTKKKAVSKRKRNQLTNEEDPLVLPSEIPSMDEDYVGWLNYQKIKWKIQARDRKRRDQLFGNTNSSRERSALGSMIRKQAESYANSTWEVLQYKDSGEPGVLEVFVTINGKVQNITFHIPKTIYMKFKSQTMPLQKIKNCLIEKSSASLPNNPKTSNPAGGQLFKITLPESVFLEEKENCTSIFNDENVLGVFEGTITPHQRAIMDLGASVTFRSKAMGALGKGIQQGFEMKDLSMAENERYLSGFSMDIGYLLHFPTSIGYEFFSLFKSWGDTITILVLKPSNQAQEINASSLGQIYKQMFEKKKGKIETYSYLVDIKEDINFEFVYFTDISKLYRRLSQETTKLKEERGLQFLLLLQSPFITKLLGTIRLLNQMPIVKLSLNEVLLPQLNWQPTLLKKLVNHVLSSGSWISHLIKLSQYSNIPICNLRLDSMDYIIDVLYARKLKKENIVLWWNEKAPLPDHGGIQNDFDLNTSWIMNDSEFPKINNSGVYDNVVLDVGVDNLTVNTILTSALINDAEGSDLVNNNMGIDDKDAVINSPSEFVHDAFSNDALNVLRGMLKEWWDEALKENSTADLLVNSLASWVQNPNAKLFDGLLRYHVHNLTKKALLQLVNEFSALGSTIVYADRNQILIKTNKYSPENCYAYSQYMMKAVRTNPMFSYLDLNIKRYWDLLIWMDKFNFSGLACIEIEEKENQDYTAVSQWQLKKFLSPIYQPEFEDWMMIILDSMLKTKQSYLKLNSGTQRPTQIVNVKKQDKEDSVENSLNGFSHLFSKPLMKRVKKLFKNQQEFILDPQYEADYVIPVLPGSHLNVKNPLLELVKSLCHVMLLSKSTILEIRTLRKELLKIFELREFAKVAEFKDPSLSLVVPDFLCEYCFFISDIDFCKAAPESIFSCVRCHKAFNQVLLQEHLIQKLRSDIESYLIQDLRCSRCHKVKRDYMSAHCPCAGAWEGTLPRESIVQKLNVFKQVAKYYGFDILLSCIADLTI
Pol epsilon WT (holoenzyme), sequence (P24482 whole entry, chain 2 of 4): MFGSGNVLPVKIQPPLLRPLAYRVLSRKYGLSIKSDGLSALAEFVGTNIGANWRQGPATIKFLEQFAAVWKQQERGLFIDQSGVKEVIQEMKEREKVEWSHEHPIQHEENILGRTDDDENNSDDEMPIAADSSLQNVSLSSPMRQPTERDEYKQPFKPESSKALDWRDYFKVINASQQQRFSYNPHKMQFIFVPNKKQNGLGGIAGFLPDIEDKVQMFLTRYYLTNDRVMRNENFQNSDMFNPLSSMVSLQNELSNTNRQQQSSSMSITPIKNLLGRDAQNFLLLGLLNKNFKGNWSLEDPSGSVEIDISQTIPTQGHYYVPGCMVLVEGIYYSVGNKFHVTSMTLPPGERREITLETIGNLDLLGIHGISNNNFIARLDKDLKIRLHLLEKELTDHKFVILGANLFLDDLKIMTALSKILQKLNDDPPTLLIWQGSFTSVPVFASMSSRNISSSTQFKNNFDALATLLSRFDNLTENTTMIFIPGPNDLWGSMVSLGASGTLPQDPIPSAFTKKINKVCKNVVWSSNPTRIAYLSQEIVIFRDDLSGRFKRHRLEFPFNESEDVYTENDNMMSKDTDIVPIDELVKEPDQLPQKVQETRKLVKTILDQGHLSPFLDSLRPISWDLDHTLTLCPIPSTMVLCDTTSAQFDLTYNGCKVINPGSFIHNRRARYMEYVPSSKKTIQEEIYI
Pol epsilon WT (holoenzyme), sequence (P27344 whole entry, chain 3 of 4): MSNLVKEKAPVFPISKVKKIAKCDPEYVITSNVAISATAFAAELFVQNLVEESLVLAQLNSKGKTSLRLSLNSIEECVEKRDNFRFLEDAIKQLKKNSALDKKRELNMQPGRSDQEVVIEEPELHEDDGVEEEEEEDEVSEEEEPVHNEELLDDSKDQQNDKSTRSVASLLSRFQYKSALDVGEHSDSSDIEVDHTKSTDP
Pol epsilon WT (holoenzyme), sequence (Q04603 whole entry, chain 4 of 4): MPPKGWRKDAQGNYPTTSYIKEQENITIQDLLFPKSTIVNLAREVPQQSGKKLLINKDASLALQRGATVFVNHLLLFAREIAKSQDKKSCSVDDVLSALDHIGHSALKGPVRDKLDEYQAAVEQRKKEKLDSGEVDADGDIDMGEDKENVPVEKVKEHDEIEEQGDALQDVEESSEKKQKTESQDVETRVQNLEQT

B1: P50/T80-1 (mixed)
DNA 1: TGGAACTTTGTACGTCCAAAATTGAATGACTTGGCCAACTACACTAAGTT
DNA 2: GGATTACGAAACGAAGCACATTAGCCCTGGAACTTAGTGTAGTTGGCCAAGTCATTCAATTTTGGACGTACAAAGTTCCA
  binding result: binds
